In patent US20230348588A1 (published 2023):

Target: extracellular domain (ECD) of recombinant human Sortilin with a C-terminal HIS tag (ECD-huSortilin-HIS) (UniProt Q99523 78-755)
Assay: ELISA

Chain of extracellular domain (ECD) of recombinant human Sortilin with a C-terminal HIS tag (ECD-huSortilin-HIS) (Q99523 78-755): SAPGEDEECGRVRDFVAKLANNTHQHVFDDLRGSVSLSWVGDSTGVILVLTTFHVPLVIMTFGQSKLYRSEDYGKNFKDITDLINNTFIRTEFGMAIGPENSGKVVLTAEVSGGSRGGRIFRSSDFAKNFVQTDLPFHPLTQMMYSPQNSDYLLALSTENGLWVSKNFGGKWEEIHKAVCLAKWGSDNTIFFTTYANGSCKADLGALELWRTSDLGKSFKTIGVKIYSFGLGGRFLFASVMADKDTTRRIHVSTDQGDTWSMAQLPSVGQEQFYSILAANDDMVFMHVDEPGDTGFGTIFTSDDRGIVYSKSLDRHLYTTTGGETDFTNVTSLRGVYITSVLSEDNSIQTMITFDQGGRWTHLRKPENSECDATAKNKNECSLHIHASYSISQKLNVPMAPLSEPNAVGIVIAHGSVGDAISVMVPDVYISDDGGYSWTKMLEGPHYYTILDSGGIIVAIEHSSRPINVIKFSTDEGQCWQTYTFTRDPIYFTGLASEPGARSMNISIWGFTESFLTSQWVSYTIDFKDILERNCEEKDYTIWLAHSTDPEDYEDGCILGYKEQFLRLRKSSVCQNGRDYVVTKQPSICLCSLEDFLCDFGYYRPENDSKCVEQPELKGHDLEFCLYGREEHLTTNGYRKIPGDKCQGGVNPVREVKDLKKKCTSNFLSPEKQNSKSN

- EC50: 5.8 nM
B1: mouse monoclonal antibody 4N2 (antibody, V domains shown)
VH: EVKLVESGGGLVKPGGSLKLSCGASGFTFSNYVMSWVRQTPERRLEWVATISGGGRYSYYPDSVKGRFTISRDNAKNNLYLQMSSLRSEDTALYYCGRQDDYDSFPYCGQGTLVTVSV
VL: DILLTQSPAILSVSLGERVSFSCRASQSIGTSIHWFQLRTNGSPRLLIKYASEPISGIPSRFSGSGSGTDFTLSINSVESEDIADYFCQQSKSWPITFGTGTKLELK
